# Measurements taken from paper doi:10.1101/2025.05.16.654433.
# B1: APE-1::GFP::3xflag (endogenous APE-1 tagged with 3xflag and GFP) [C. elegans] / HaloTag::GSP-2 (endogenously HaloTagged GSP-2 labeled with JF646) [modified: far-red dye JF646 on the HaloTag; far-red dye JF646 on the HaloTag] … (parent)
# chain 1: MVTTSSGGGIGYPANNGVTQVSLIHSSDSVRTVSTAPIYRPTSSMASTMAHKSSTAPFISANQRMSKPPVRVVAQPPPPHPQALSQQYHQQNPMMMYSAPNTRPHVIPTMQVQPTMAAQIKRNNPVNAQFQNPSEMIADYGVKPQSVEMVQRVRAVRRQVADEETELRRLRELEHETAQLQNKNYGRERELNVQGSMLKEAQLELRNASMRAQSLNKHLEEMYRRRQTAAAAALVEQRKMQQHQILLARAANQVSTQEVIRPRASVEPFQVNNTQQQQPSPQMMKSEEFSEKRDLNGQTGSYDAIDGSGDHQKIPTEPSYLAPCKENQQKYSELSKMASTDPHSNHSSPSTSSQKAPTLITFSPPSFEQKINSSTMTRDSPFVERPTSFGDSLDESRLRSGKTDLVSLRSDSLKATKRRSWAASEGTSMSEAEMIHRLLDEQRRGRSHFIPQLPTSQEEPSAITSETYAEEVVNSESKQVATSSDSTNNLELPTEQMVLGSDTTTEEDASSCSTRSDDGQNLEMEVAIERRTVKGILRRPNEKMNKGRIEFDPLALLLDAALEGELDLVRSSASKLTDVSQANDEGITALHNAICAGHYEIVRFLIENDADVNAQDSDGWTPLHCAASCNNLPMVRQLVEGGGCVLASTLSDMETPVEKCEEDEDGYDGCLKYLSAAHNSTGSINTGKVYAAYGYEAAFEDELSFDAGDELTVIEKDKVDKNWWTCEKNNGEKGQVPRTYLALYPSLKYRKKLNFVMFDLPLESNNNVE
# chain 2: MDVEKLNLDNIISRLLEVRGSKPGKNVQLTESEIKGLCQKSREIFLSQPILLELEAPLKICGDVHGQYYDLLRLFEYGGFPPESNYLFLGDYVDRGKQSLETICLLLAYKIKYPENFFLLRGNHECASINRIYGFYDECKRRYNIKLWKTFTDCFNCLPVAAIIDEKIFCCHGGLSPDLQSMEQIRRIMRPTDVPDQGLLCDLLWSDPDKDVTGWGENDRGVSFTFGPEVVAKFLHKHDLDLICRAHQVVEDGYEFFAKRQLVTLFSAPNYCGEFDNAGSMMTVDETLMCSFQILKPADKKKYPYGAGGVGSNRPVTPPRNAPAAQPKKGAKK
# Variants of: B1
# Assay: single molecule photobleaching analysis (TIRF microscopy) on anti-flag functionalized coverslips
# Details: with HaloTag::GSP-2 (endogenously HaloTagged GSP-2 labeled with JF646) [modified: far-red dye JF646 on the HaloTag, whole worm lysates, HaloTag::GSP-2 labeled with JF646, p = 0.008 vs APE-1, read off a plot
row,Variant,screen value [%]
1,chain 1 N583K,34

# Same assay, conditions: with HaloTag::GSP-2 (endogenously HaloTagged GSP-2 labeled with JF646) [modified: far-red dye JF646 on the HaloTag, whole worm lysates, HaloTag::GSP-2 labeled with JF646, p=0.531 vs APE-1, read off a plot
row,Variant,screen value [%]
1,chain 1 H591Y,38
